Test results from patent US20190204338A1 (PHYLOGICA, published 2019).
Where no end group is shown, it is not given here. His tag = polyhistidine tag from vector pDEST-HisMBP; MBP = not defined here

Legend:
[1] = molecular target: T1, MBP-MAP4K4-CNH (biotinylated, immobilised) (human, UniProt P0AEX9 27-392 = MBP; O95819 926-1213, limits assumed, biotinylated (site not given)); experiment: BLI (Octet-RED), titration, compared with MBP-RAP2A in the same system
T1 construct: 45 ug/ml on streptavidin biosensors; also called CNH domain of MAP4K4; biotinylated MAP4K4-CNH
Procedure: (§1) Data were acquired with the Data Acquisition software version 6.2 and all steps/dilutions were performed in baseline buffer (PBS pH 8.0) at a rotation rate of 1000 rpm.

[2] = molecular target: T1, MBP-MAP4K4-CNH (biotinylated, …); experiment: BLI (Octet-RED), titration 100-1000 nM, global 1:1 fit, immobilised biotinylated MAP4K4-CNH
Procedure: as §1

[3] = molecular target: T1, MBP-MAP4K4-CNH (biotinylated, …); experiment: BLI (Octet-RED), single concentration 1 uM, local 1:1 fit, immobilised biotinylated MAP4K4-CNH
Procedure: as §1

B1: MBP-25C3 (Phylomer 25C3 expressed as a His-MBP tagged fusion) (peptide)
chain: {His tag-MBP}-LGAAGPTHYDHLDCAR
modifications: reading uncertain; also: linker between MBP and peptide not given here
notes: Purified as monomeric protein; also called 25C3 fusion peptide; not shown: His tag of vector pDEST-HisMBP
fold lower binding affinity than RAP2A [1]: 5 fold
Kd [2]: 0.028 µM
koff [2]: 0.0001 s⁻¹
Kd [3]: 0.0235 µM
koff [3]: 4.4e-05 s⁻¹
